Assay results from a protein production outcome set (Wang et al. 2014).

Assay: label from the status in PepcDB records
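Further: failed if final PepcDB status was selected cloned or expressed and not failed if soluble or beyond.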

| Sequence | protein production |
| --- | --- |
| MALIVQKFGGTSVGTVERIEQVAEKVKKFREAGDDVVVVVSAMSGETNRLIGLANQIMEQPVPRELDVMVSTGEQVTIALLSMALIKRGVPAVSYTGNQVRILTDSAHTKARILHIDDTHIRADLKAGRVVVVAGFQGVDGNGNITTLGRGGSDTTGVALAAALKADECQIYTDVDGVYTTDPRVVPQARRLDKITFEEMLEMASLGSKVLQIRAVEFAGKYNVPLRVLHSFQEGPGTLITIDDEEESMEQPIISGIAFNRDEAKLTIRGVPDTPGVAFKILGPISAANVEVDMIVQNVAHDNTTDFTFTVHRNDYLNALEILKQTAANIGAREAIGDTNIAKVSIVGVGMRSHAGVASRMFEALAKESINIQMISTSEIKVSVVIEEKYLELAVRALHTAFELDAPARQG | failed |
| MKSNRLIKRLDWYIIKKFLGTYVFAIALIISIAVVFDFNEKMDKLMEHEAPWDKIIFEYYMNFIPYFSNLFSPLFVFIAVIFFTSKLAENSEIIAMFSTGMSFKRMMRPYMISAAIIAAATFMMSSFIIPKGSVTRLNFEDKYIKPKKVNSVRNVQLEVDSGVIAYIDNYNDGMKTGNRFSLDKFVDKKLVSHLTARRITYDTTTVNKWTIHDYMVRELDGLKEKITKGDRIDSIINMDPSDFLIMKNQQEMLTSPELSEYIEKQKRRGFANIKEFEIEYHKRIAMSFASFILTIIGVSLSSRKTKGGMGLHLGIGLGLSFSYILFQTITSTFAINGNVPPAIAVWIPNILYAGIAFYLYQKAPK | failed |
| MVVKASGGSSVARPQLYQTVPVSTIIQAEQQDRFLNRGELDELAVYLRSGAKRLEIATTLTRNADIIVSRAANRIFVGGSPMAFLSRPQTEEAPQFTTGARGEAIDIKEAMKLGTATYVDTRGGFLEGLRSIFSASSGGAPVGFKPINIARYGPARMEKSLRDLDWFLRYTTYAIVAGDPNILAVNTRGLREIIEAACSSDATIAALQEMRRAALSYFEKDAEAKGIVETYFDVLINEFIAPAPSDKVRQRNSTDLQGLQLPQIYFNAAERRPKFVMKPGLSAAEKNEVVKAAYRQIFERDISRAYGLGISDLESKVKNGSISMKEFIRQLAKSPLYRKNFYEPYINSRALELAFRHILGRGPSSREEVQTYFAIISKGGLPALVDALVDSKEYSDYFGEETVPYLRGLGQEAQECRNWGAQQDLFKYSAPFRKVPQFITTFAAQDQPLPDQHPYGSGNDPLEIQFGAIFPKEKKNPSARPQPFNKDTRRILIARGPGINNQVSNPGARGLTPGTLGPKVFKLDQLPSINARIGKRSIATGTDSVKFAESSTQRVIRAAYLQVFGRDVYEGQRQKVAEIKLENGEISVREFVRILAKSNLFRSLYWTPLYVTKAIEYIHRRLLGRPTYGRQEMNAYFDIASKKGLYGLVDAIIDSQEYSEAFGEDTVPYERYITPQGLALRSLRVGTIGETGVPPEKEETPRFVELGAVTELRTEPAIQFRANQGVSKRREQTKVFKLTDLNDKQNLQLVIQAAYRQVFERDVAPYIVRDEFTALESKLSNGEITLKEFIEALGCSELYQKEFYTPYPNTKVIELGTKHFLGRAPLDQAEIRRYNQILATQGLKAFVQALVSSAEYAQAFGEDTVPYRRFPTLPAANFPNTEKLHNQLTKQSDAIVVPSFAPVKPRLDNTKLPLLSRAIAEQEAKARQADPSKPRFIELGRSFRNGDGQSVEVGVGTTRRRPARIFRMTVGAPSAEVELVINAIYCQVMDVFSGQVPSQFRRPDLESRLRNGEITVREFVRTLASSEIYRNRFYTPYPNTKVIEFLFRHLLGRAPATQAEIRQYNKILADQGLKTAVETMVNSPEYSRYFGEDVVPYKRFPTLPAGNYIGSVKADADLVKQSWSSLSPSLVGIQPSHRD | failed |
| MMKRVAVTGAAGRVGTLLRPLLRSHFEHLSLIDLQEPDELGENENFVRADFTKLDEATAALKDIDGVIHLAGIASGTDMNAILHANVLGTYNLYEAARINKVQRVVYASSNHATGFYPRGQLVSPLDPMRPDSPYGLSKCWGELVAGLYYDTSGIRSLSIRIGNAGTYPNSERSIAIWISARDLAQLVRIGLSHPLIAATVVYGVSDTEEKWWENDLATRLGYQPQDRPRDHALIEEGSEGPVALAFQGGGFCEINHDGTIRMRDADGLAKSPETVE | failed |
| MEPGPEDYLVCAIAKPADKRLVVEKLLGKGARFFTLIHPSVIMGENVVIGQGAVICPSTVLSVDLRIGAFVTLNIGCLVGHDADIGDFSTLSGHCDITGGVVLEEEVFMGTHASVLPNVKVGKQAVVGAGSVAIRNVAAGITVFGVPAKRISGLEHHHHHH | failed |
| MNVIRLKEDKFREALRLSEYAFQYKVDEDRLQQQITKMKESHEVYGIMEGENLAAKLHLIPFHIYIGKEKFKMGGVAGVATYPEYRRSGYVKELLQHSLQTMKKDGYTVSMLHPFAVSFYRKYGWELCANLLVCHMTKSDLVMKKQVNGTVKRFNKESHPEEVEKLYETFAELFSGMLVRNEKWWLQAVYDDLTLAIYYDENQTAAGYMLYKIENYKMTVEEFVPLHNEARNGLWNFICQHDSMIKDLEMTVSENEPLLYTLQEPRVKTEIKPYFMGRIVDVEQFLKQYELNWNNVQQEVILHITDSFAQWNNITVRIANHEITIIEEPIDKGIKLDINALSTILFGYRRPLELNELELISGSEEEIRAFESVVPVRKPFIYDFF | not failed |
| MNIPNLLTLFRFFLIPCFIFAFFSRSNDSLINSAIIFFIAGFTDILDGYIARKFNEITKYGTVMDPLADKLMLLTVLCCLTIKGYIPLLILLIMLAKEFSMIIIGVFLYGKNIIIPANIWGKLSTLIFYVAILFFTFSKFLGTYLLYIAILGAVVAYINYFLIFLSKYRQNATK | failed |
| MKRFVLFLLFMCVCVQAYAEQDYFFRDFKSRDLPQKLHLDKKLSQTIQPCMQLNASKHYTSTGVREPDKCTKSFKKSALMSYDLALGYLVSKNKQYGLKAIEILNAWAKELQSVDTYQSEDNINFYMPYMNMAYWFVKKAFPSPEYEDFIKRMRQYSQSALNTNHGAWGILFDVSSALALDDNALLHNSANRWQEWVFKAIDENGVIASAITRSDTSDYHGGPTKGIKGIAYTNFALLALTISGELLFENGYDLWGSGAGKRLSVAYNKVATWILNPETFPYFQPNLIGVHNNAYFIILAKHYSSPSANELLKQGDLHEDGFRLKLRSP | failed |
| MGHHHHHHSHPAEYNISPETRRAQAERLAIRAQLKREYLLQYNDPNRRGLIENPALLRWAYARTINVYPNFRPTPKNSLMGALCGFGPLIFIYYIIKTERDRKEKLIQEGKLDRTFHLSY | failed |
| MGNEEEKMNADIFSYEGEGIQCVYDNKNWVMCIKNWKPNNDIENIRYLEVHHATDEQFVLLKGKAVLLAAVKADGACRIDVIPMEPYKVYNIPQGIWFNTITQKDTKLVYVQDAATTAENSEYCDMTQEELNEVKEKASACLD | failed |
| MEGEAQKKFTTGDKAYVKKDSMMYEIVVGCNRSCPCRDSQCIAQIQQVAEPTVANGTARYFVHYVSWNESFDEWVEELDLYPFNAESQQLMNDLRQQALTEKDTENSVPEQENQLKRKRPSKETEKREEPLDAYSLFNIPGSLKRQLMDEWETVTREKMTLTLPREYTVRRILEIWATTKSKQSDSNKDDSTVQEFVNGIFELFNISLGKMLLYRYERPQHNQIFHENESPPEPIDVYGAEHLLRLFVKLPGLVRHLQVPEEAVLNIAQKSYEMLRFLQKNSRKFFSPQYEPLKSQDDSVQGENEDDMDEE | not failed |
| MKSYQPKSLLNDLQYYITPPHDCSYLDNKSARMVFLDPIHRIDVVTLSELSRVGFRRSGDFVYRPECHLCRQCLSCRVPVHDFNMNSLQKKAWKRNQDLRMSIVPTHAATSVHYQLYERYINERHADGDMFPPSLDQFEKFLVHSCTESFFLELWKDDRLICVSTCDLMDDGLSAVYTFFDPDENRRSLGVFAILKQLEYVKSIDLDYLYLGYWVPHSQKMNYKSQYIPLELLLDGQWRRLNRALSQEEISQLGESLMTILPSEWNSMIIKLEHHHHHH | failed |
| FTNHKGNPMQTERFNKILREAAKDVGIDKEVSSHILRHSHISLLSQQGVSLKAIMDRVGHSDHRTTLSIYSHVTEQMDKDMMNKLEQVKLG | failed |
| MTQHYLRSAAYRDFSIHSIYGMSDDDIHAMFARLRWSSDSHQACPACGAWAQHYRRPARQQWRCKECGRDFSVTSATAFSSRKKSLRSILLATFYYVTGVKGLAGLGLSRMGDYSNKAAHVALGKLREAIFRTQDFTPLTGVVEIDGGYFGGKPRKPNRRGLRNDQAIVDRIAGRPAKRPWHASGMTRTNWEKRKNKRVVMIFRQQGRPGEGAVRSIAAVARSENDKDAAKLIARYVSSEAIIMTDESPAYATVSATHTHYAVRHSHEYVSAEGVNENQAESFFSRLRRWEYGVSHGVRPAYLADYANEMAWREDVRRFSIRTQVEMLLIKALTVGHSRWWRGYYQGKRRGTEILMNQGIPPSSASGASAQ | failed |
| MKLAKLIPKRFFIRSKDRSTVSKSPTAFSFGSASSSSGQDCKNSGGDGGGGSVTPTSILPEVPSPYSYVEILQAFKLIDRDNDGAVSRHDLESLLSRLGPDPLTEEEINVMLKEVDCDGDGTIRLEELASRVVSLDPARDSTELKETFEFFDADRDGLISADELLRVFSTIGDERCTLDDCKRMIADVDEDGDGFVCFTEFSRMMDLQR | failed |
| MCMLEPSKIFKALSNPINLKILTLLRSSSFHPRELARILNRDETDISRRLRQLERLGLIKGKWERVDGKNVRVYSLKVSEIRIFMHPTKLEVKVGENESYEAPIEWESSPRVEVFVGRKRELSIIRNAKGVVVIYGIAGIGKTSLAAKAFPNAYWYNVTGLEDFKYFAWQLGLFLSSIGFEDLLEYLRGGGNNENDIFKLITEGIEKTGAIIIIDDFHKFQDEKVNYLLSYLAPRIKKGKVIITTRIRPNLGNEGVTYVNLKGLNPEEAYSLAREKEKSMTPEEFAKLYKLTFGHPLMLNLILESSEILATGKDTVFNFLFEEVYQMLNEEEKDLLSILSLFDEPIEYEGIKFLYDRNPFVPLYSLMKKGLIEKKGEKYFVHDMVREFVREVSNQEEKEVYLRHVNFLLKSKTPINFLRAFKYAIKVGSSELIRNLVELRVKEFYRIIVDFPRMYQRLLMEVEDNPYAKIEIAIIEVQRGLFEKAIKLLKEAEPYVDEFFKCEIYSWLADAYMELENLEKAERYLKKTKEIVEKINDMYAWFSYYAEKTKYEYYKENSREALKSALKELEIIRKIGDPEKEGLVLLHVGDIYLHMGNYEKGISYYQEALKMAKAYGIKFLEHISYMELAKGYYQLKLYEKASEYSEKAANYFLMIRNYRRATDAMAYGSVSYIATKNLEKAEKFAKEMIRIAQSTDYPLAWAGYIFLAAVDFLKGDDWREDYNLGKAHLKEYPWLFEAVLDELKKVFDLSNFK | failed |
| MKQRTLPAAFLLALSIASLAGCASPTVITLNDGREIQAVDTPKYDEDSGFYEFKQLDGKQTRINKDQVRTVKDLLEHHHHHH | failed |
| MRLLACWTDVHHRHAPMTAHDLPRQAFLRGAVAILPLSLAVAPWGLLAGSMAIEANLTPAEGQGLSAIVFAGAAQLVAIGMLKGGAGFFSIIFTTLLLTSQHLLYGMSLRPVLSPLPGRWRIGLGFLLTDEFFALASQHDRRNFNRWYALGVGLTFYIAWNLFTLAGILLGRSIPGLEHLGLDFSIAATFIALVAPLVRNVPTLVCVATSLFCSVLFSHWQWSSALVLAGLAGMAAGFICNKLYREAPWSGQ | failed |
| MDRFDAMRAFARVVETGSFTKAADTLHMSKTSVTQLVQQLEARLRVRLLNRTTRKVNATADGAAYYERVRQLLADLEDAETSLSGASATPGGRLRVDVPSPFASTILVPALPAFQARYPDILLHLGVSDREVDLIDENVDCVIRGGQIGNLSLAARHVGDLQLGVYASPGYLARAGVPAHPRELQDAQHRIIGFSWSRARRLFPCAMRRRADERIEVAGRHALLLDEGNAYLAAGLAAMGVIGVPTYMAEAHVERGALIRLFGDWRLDPMPLYIAYPQNRHVSAKLRVFIDWIVELMARHAPVTDAPPPHRSARMPGGPAAIPTDITGA | failed |
| MKKGTVLNSEISSVISRLGHTDTLVVCDAGLPIPNSTARIDMALTQGVPSFMQVVDVVTREMQVEAAILATEIKQQNPQLHETLLTHLEQLQQHQGNTIKISYTTHEQFKKLTADSQAVIRSGECSPYANVILCAGVTF | not failed |
